The source of these data is publication PMC5808845.

One series has as its target GST-TRF2 (human, UniProt Q15554 43-542). Description: EMSA.
A further series deals with GST-TRF1 (human, UniProt P54274 1-439). Description: EMSA.
GST-TRF1, sequence (P54274 whole entry): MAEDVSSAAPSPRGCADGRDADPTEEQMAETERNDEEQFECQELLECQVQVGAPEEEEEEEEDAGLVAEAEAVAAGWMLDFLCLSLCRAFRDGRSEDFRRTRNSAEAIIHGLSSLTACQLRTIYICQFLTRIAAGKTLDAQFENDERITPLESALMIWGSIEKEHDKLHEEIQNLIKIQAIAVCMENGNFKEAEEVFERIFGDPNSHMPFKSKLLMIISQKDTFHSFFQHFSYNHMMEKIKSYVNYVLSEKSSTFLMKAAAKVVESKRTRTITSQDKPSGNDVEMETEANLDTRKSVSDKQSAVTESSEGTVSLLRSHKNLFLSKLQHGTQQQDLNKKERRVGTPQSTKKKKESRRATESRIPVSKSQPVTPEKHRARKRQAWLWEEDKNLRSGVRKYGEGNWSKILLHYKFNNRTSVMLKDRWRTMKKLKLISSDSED

GST-TRF2, sequence (Q15554 43-542): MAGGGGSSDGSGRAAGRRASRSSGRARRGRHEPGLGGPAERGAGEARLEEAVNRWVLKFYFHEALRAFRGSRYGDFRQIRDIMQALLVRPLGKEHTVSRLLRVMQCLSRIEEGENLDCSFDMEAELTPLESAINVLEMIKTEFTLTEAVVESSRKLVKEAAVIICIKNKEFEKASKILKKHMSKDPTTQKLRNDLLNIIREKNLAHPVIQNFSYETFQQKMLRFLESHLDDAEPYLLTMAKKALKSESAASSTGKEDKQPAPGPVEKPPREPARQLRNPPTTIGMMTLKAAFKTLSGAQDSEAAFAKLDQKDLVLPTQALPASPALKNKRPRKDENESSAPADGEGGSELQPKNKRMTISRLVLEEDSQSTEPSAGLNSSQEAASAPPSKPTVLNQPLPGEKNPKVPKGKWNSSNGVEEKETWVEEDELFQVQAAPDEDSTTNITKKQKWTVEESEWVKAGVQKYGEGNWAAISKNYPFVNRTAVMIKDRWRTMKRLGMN

B1: (CCCUAA)5 RNA (ssRNA)
RNA: CCCUAACCCUAACCCUAACCCUAACCCUAA
Take B1: the binding result in the series with GST-TRF2 and with GST-TRF1 was “no binding” each time.

B2: random RNA (ssRNA)
RNA: AGAGAUUGCCUGACGUCAGAGAGCUAGCGA
In the case of B2, the binding result in the series with GST-TRF2 and in the series with GST-TRF1 was “no binding” in each case.

B3: random DNA (ssDNA)
DNA: TATCGATAAGCTTGATATCGAATTCCTGCA
As for B3, the binding result in the series with GST-TRF2 and with GST-TRF1 was “no binding” each time.

B4: (TTAGGG)5 DNA (ssDNA)
DNA: TTAGGGTTAGGGTTAGGGTTAGGGTTAGGG
B4: the binding result with GST-TRF2 and in the series with GST-TRF1 was “no binding” throughout.
